Test results: US20100316632A1

What was measured:
[1] = biological target: CD40 receptor (human), on CD14+ monocytes (human) (UniProt P25942)
[2] = biological target: CD40 receptor (human), on CD14+ monocytes (human) (UniProt P25942); remark: listed apart in the source

Q: How did the TNF-α production by CD14+ monocytes (ELISA of supernatant after 24 h) [1] turn out when “clone 64 (agonist anti-human CD40 monoclonal antibody, PanGenetics, The Netherlands)” was run?
A: 449 pg/mL

Q: And the IL-1β production by purified CD14+ cells of MDS patients (ELISA) [2]?
A: 18 pg/mL

Q: What about the IL-6 production by purified CD14+ cells of MDS patients (ELISA) [2] of the same substance?
A: 1210 pg/mL

Q: What about the IL-10 production by purified CD14+ cells of MDS patients (ELISA) [2] of the same substance?
A: 1650 pg/mL
